Results reported in article PMC8051608, “Overexpression of GmMYB14 improves high‐density yield and drought tolerance of soybean through regulating plant architecture mediated by the brassinosteroid pathway”.

Molecular target: T1, GmMYB14 (Glycine max cv. Tianlong No. 1, UniProt K7MYP5 1-291)
T1 sequence: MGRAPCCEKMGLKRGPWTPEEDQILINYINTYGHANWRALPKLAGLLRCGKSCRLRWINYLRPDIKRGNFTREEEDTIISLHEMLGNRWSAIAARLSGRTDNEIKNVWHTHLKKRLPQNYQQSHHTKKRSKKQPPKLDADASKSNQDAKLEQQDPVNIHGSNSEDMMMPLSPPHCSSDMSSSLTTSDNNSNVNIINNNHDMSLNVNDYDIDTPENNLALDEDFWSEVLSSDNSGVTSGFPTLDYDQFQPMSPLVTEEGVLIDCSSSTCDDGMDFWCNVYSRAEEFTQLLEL
Assay: EMSA; 100x cold probe competition tested; EMSA Kit (Thermo Fisher), non-denaturing 6% polyacrylamide gel, streptavidin-HRP/ECL detection; buffer, salt, pH and temperature not stated
Settings: protein: recombinant; tags: His (pCzn1-His vector); label: biotin; annealed complementary oligos

B1: GmBEN1 promoter AC element 1 probe (30 bp) (dsDNA)
DNA 1: TAATACACCAAGCCACCTACCTTGTCTCTTT
DNA 2: AAAGAGACAAGGTAGGTGGCTTGGTGTATTA
Does B1 bind?
Result: binds
